From article PMC10686790, “Crystal structure of the GDSL family esterase EstL5 in complex with PMSF reveals a branch channel of the active site pocket” (Acta Biochimica et Biophysica Sinica, 2023)

B1: EstL5 (Geobacillus thermodenitrificans) (protein)
chain: ALVVQDQLFTAAKPSIEQKRPSANEAKKRDGEIDIVALGDSLTRGTGDESGKGYIGYMVDELRQQTDEPIRVTNLAIRGLRSDGLLRQLGQSEIQRQIAMADLIVMTIGGNDLFQGGEALEWNVKELDEAKRQYIANLDRIFALLRRLNSEAVIFAIGLYNPFSDLDDAKRTSAIVRDWNFASAEVAAHYPNIVAVPTFDLFALHVNDYLYSDHFHPNKEGYKRIGERVASLITLTEEDRQ
notes: without deduced signal peptide, N-terminal His tag, pET28b, E. coli BL21(DE3); two molecules in asymmetric unit
B2: EstL5 (Geobacillus thermodenitrificans; S207F) (protein)
chain: ALVVQDQLFTAAKPSIEQKRPSANEAKKRDGEIDIVALGDSLTRGTGDESGKGYIGYMVDELRQQTDEPIRVTNLAIRGLRSDGLLRQLGQSEIQRQIAMADLIVMTIGGNDLFQGGEALEWNVKELDEAKRQYIANLDRIFALLRRLNSEAVIFAIGLYNPFSDLDDAKRTSAIVRDWNFAFAEVAAHYPNIVAVPTFDLFALHVNDYLYSDHFHPNKEGYKRIGERVASLITLTEEDRQ
notes: as for B1
B3: EstL5 (Geobacillus thermodenitrificans; S207W) (protein)
chain: ALVVQDQLFTAAKPSIEQKRPSANEAKKRDGEIDIVALGDSLTRGTGDESGKGYIGYMVDELRQQTDEPIRVTNLAIRGLRSDGLLRQLGQSEIQRQIAMADLIVMTIGGNDLFQGGEALEWNVKELDEAKRQYIANLDRIFALLRRLNSEAVIFAIGLYNPFSDLDDAKRTSAIVRDWNFAWAEVAAHYPNIVAVPTFDLFALHVNDYLYSDHFHPNKEGYKRIGERVASLITLTEEDRQ
notes: as for B1

What follows are proteins tested on CCCC(=O)Oc1ccc([N+](=O)[O-])cc1 (assay: purified protein). Conditions: 20 mM Tris-HCl pH 8.0, 30°C.
Assay type: biochemical, Geobacillus thermodenitrificans

**Q.** B1 was tested. Which Km did it give?
**A.** 640 ± 2210 µM

**Q.** And the kcat?
**A.** 116.27±1.71 S-1

**Q.** Which Km does the source give for B2 here?
**A.** 650 ± 1920 µM

**Q.** And the kcat?
**A.** 86.51±1.68 S-1

**Q.** For B3, which Km is on record?
**A.** 790 ± 2670 µM

**Q.** What about the kcat of the same protein?
**A.** 86.78±1.03 S-1
